Results: US20210070875A1
Values joined by “and” are separate entries in the source; they are usually repeats but may differ in a detail not shown here. Identical values can stand only once. Values belong to the substance of their own block, whether it stands above or below them.

Assays:
[1] = biological target: C5aR extracellular N-terminus polypeptide (UniProt P21730); assay: ELISA, polypeptide coated at 1.0 µg/mL
C5aR polypeptide-04 = C5aR polypeptide-04 (UniProt P21730); assay: ELISA, polypeptide coated at 1.0 µg/mL
C5aR polypeptide-05 = C5aR polypeptide-05 (UniProt P21730); assay: ELISA, polypeptide coated at 1.0 µg/mL
C5aR polypeptide-03 = C5aR polypeptide-03 (UniProt P21730); assay: ELISA, polypeptide coated at 1.0 µg/mL
human C5aR (human) [2] = biological target: human C5aR (human) (UniProt P21730); assay: FACS, CHOK1-hC5aR cells, 0.0007 nM antibody
human C5aR (human), sequence (P21730 other isoform, or with tags, fused parts or gaps): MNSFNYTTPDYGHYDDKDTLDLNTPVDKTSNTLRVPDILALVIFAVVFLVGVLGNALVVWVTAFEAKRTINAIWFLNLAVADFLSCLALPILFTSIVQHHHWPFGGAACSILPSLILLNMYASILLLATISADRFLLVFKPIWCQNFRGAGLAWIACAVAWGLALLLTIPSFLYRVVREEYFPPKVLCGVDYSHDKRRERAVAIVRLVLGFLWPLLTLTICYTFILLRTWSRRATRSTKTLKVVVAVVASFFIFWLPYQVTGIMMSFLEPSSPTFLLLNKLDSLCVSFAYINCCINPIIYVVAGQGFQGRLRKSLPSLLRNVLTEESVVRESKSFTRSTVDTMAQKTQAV

human C5aR (human) [3] = biological target: human C5aR (human) (UniProt P21730); assay: cell-based or functional assay
human C5aR (human) [4] = biological target: human C5aR (human) (UniProt P21730); assay: FACS, CHOK1-hC5aR cells, 0.0067 nM antibody
human C5aR (human) [5] = biological target: human C5aR (human) (UniProt P21730); assay: FACS, CHOK1-hC5aR cells, 0.0666 nM antibody
human C5aR (human) [6] = biological target: human C5aR (human) (UniProt P21730); assay: FACS, CHOK1-hC5aR cells, 6.6600 nM antibody
human C5aR (human) [7] = biological target: human C5aR (human) (UniProt P21730); assay: FACS, CHOK1-hC5aR cells, 66.6000 nM antibody
human C5aR (human) [8] = biological target: human C5aR (human) (UniProt P21730); assay: FACS, CHOK1-hC5aR cells, 666.0000 nM antibody
human C5aR (human) [9] = biological target: human C5aR (human) (UniProt P21730); assay: FACS, CHOK1-hC5aR cells, 0.0000 nM antibody (background)
human C5aR (human) [10] = biological target: human C5aR (human) (UniProt P21730); assay: FACS, CHOK1-hC5aR cells, 0.6660 nM antibody

- OD450 nm [1]: 0.07 OD450 nm
- OD450 nm (C5aR polypeptide-04): 0.06 OD450 nm
- OD450 nm (C5aR polypeptide-05): 0.07 OD450 nm
- OD450 nm (C5aR polypeptide-03): 0.07 OD450 nm
Substance: IgG control (human IgG) (antibody)

- MFI (human C5aR (human) [2]): 2.78 MFI and 2.03 MFI
- C5a-induced human neutrophil migration, Celltiter-Glo fluorescence intensity value, Parallel sample 1 (fluorescence intensity) (human C5aR (human) [3]): 5170
- C5a-induced human neutrophil migration, Celltiter-Glo fluorescence intensity value, Parallel sample 2 (fluorescence intensity) (human C5aR (human) [3]): 5000
- C5a-induced human neutrophil migration, Celltiter-Glo fluorescence intensity value, Parallel sample 3 (fluorescence intensity) (human C5aR (human) [3]): 2580
- C5a-induced human neutrophil migration, Celltiter-Glo fluorescence intensity value, Parallel sample 4 (fluorescence intensity) (human C5aR (human) [3]): 2640
- C5a-mediated calcium flow signal, FLIPR, antibody 0.0 µg/mL (human C5aR (human) [3]): 1870 MFI and 1690 MFI
- C5a-mediated calcium flow signal, FLIPR, antibody 0.01 µg/mL (human C5aR (human) [3]): 2110 MFI and 1890 MFI
- C5a-mediated calcium flow signal, FLIPR, antibody 0.1 µg/mL (human C5aR (human) [3]): 2080 MFI and 1740 MFI
- C5a-mediated calcium flow signal, FLIPR, antibody 0.4 µg/mL (human C5aR (human) [3]): 1920 MFI and 1610 MFI
- C5a-mediated calcium flow signal, FLIPR, antibody 1.1 µg/mL (human C5aR (human) [3]): 1830 MFI and 1790 MFI
- C5a-mediated calcium flow signal, FLIPR, antibody 3.3 µg/mL (human C5aR (human) [3]): 1870 MFI and 1840 MFI
- C5a-mediated calcium flow signal, FLIPR, antibody 10.0 µg/mL (human C5aR (human) [3]): 1730 MFI and 1850 MFI
- C5a-mediated calcium flow signal, FLIPR, antibody 30.0 µg/mL (human C5aR (human) [3]): 1590 MFI
- MFI (human C5aR (human) [4]): 2.79 MFI and 2.01 MFI
- MFI (human C5aR (human) [5]): 2.81 MFI and 2 MFI
- MFI (human C5aR (human) [6]): 2.88 MFI and 2.01 MFI
- MFI (human C5aR (human) [7]): 3.18 MFI and 2.14 MFI
- MFI (human C5aR (human) [8]): 3.22 MFI and 2.21 MFI
- MFI (human C5aR (human) [9]): 2.69 MFI and 1.99 MFI
- MFI (human C5aR (human) [10]): 2.96 MFI and 1.99 MFI
Substance: mIgG control (murine IgG) (antibody)
